Measurements as given in the nanobody polyreactivity screen of Harvey et al. (2022).

Assay: yeast display, Sf9 membrane polyspecificity reagent, FACS + sequencing; frameworks hold sequencing errors
How it was run: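 In a synthetic yeast display library (Saccharomyces cerevisiae BJ5465), nanobody expression was induced with galactose for 36–48 hours. FACS gates were set low and high (top ~1%) using anti-HA fluorescence for expression and streptavidin fluorescence for binding of the Sf9 membrane reagent. Each polyreactivity label is drawn from the gate of origin.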

Sequence	polyreactivity (PSR sort gate)
QVHLVESGGGLVQAGGSLRLSCAASGFTFPLYARGLYRQAPGKERELVAVINSDGGRTYYADSVKGRFTISRDNAKYTVYLQMNSLKPEDTAVYYCATRATWYYWGQGTQVTVSS	high polyreactivity
QVHLVESGGGLVQAGGSLRLSCAASGFTFRFYAMGCYIQAPGKERELVAAISSTGIRTYYADSLKGRFTISRDNSKNTDYLQMNSLKPEDTAVYYCAKLHRDSILDYWGQGTQVTVSS	high polyreactivity
QVHLVESGGGLVQAGGSLRLSCAASGFTFRYYTMGWYRQAPGKERELVARITWSGGITYYADSVKGRFTISRDNAKNTVYLQMNSLKPEDTAVYYCNAERRWAAYDYWGQGTQVTVSS	high polyreactivity
QVHLVESGGGLVQAGGSLRLSCAASGFTFVSYAMGWYRQAPGKESELVAAISWSSARTYYADSVKGRFTISRHNAKNTVYLQRNSLKPEDTAVYYCNAVRGFSSSRGGYNYWGQGTQVTVSS	high polyreactivity
QVHLVESGGGLVQAGGSLRLSCAASGFTFVYYTMGWYRQAPGKERELVAAITYGGNTYYADSVKGRFTISRDNAKNTVYLQMNSLKPEDTAVYYCAARYISSYDWGQGTEVTVSS	high polyreactivity
QVHLVESGGGLVQAGGSLRLSCAASGFTFYYYAMGWYRQAPGKEREFVAAITRGGGSTYYADSVKGRFTISRDKAKNSVYLQMNSLKPEDTAVYYCAADPQSTIRDYWGQGTQVTVSS	high polyreactivity
QVHLVESGGGLVQAGGSLRLSCAASGFTLRHNTIGGYRQSPGKERELVAAISIGGRTYYADSVKARFTISRDNAKNTGYLQMNSLKPEDTAVYYCGKLDRGQSPRYDFWGQGTQVSVSS	high polyreactivity
QVHLVESGGGLVQAGGSLRLSCAASGFTYYKYAMGWYRQAPGKEREFVDAITPSGGSTYYADSVKGRFTISRDNAKNTVYLQMNSLKPEDTAVYYCAAYYGTSRWAKMCYWGQGTQVTVSS	high polyreactivity
QVHLVESGGGLVQAGGSLRLSCAASGGIFLDNAMGWYRQAPGKERELVASIRTRTYYADSVKGRFTISRDNAKNTVYLQMNSLKPEDTAVYYCAAAHRRWDGDYNYWGQGTQVTVSS	high polyreactivity
QVHLVESGGGLVQAGGSLRLSCAASGGIFLENAMGWYRQAPGKERELVAAISYNGGRTYYADSVKGRFTISRDNAKNTVYLQMNSLKPEDTAVYYCNAASPYYDSWGQGTQVTVSS	high polyreactivity
QVHLVESGGGLVQAGGSLRLSCAASGGTFGYYAMGWYRPAPGKERELVAAINARGDSTYYADSVKGRFTISRDNAKNTVYFLMNSLKPEDTAVYYCNTGIALFGYKYHYWGQGTQVTVSS	low polyreactivity
QVHLVESGGGLVQAGGSLRLSCAASGGTFQDYTMGWYRQAPGKEREFVAAISLSGTRTYYADSVKGRFTISRDNAKNTVYFQMNSLKPEDSAVYYCSTSGPQYYSRNFDYWGQATQVTVSS	low polyreactivity
QVHLVESGGGLVQAGGSLRLSCAASGGTFYYNTMGWYRQAPGKERELVAAITSGTSTNYADSVKGRFTISRDNAKNTVYLQMNSLIPEDTAGYYCAADPDADDPRRGYDYWGQGTQVTVSS	low polyreactivity
QVHLVESGGGLVQAGGSLRLSCAASGGTLYANAKGWYRQAPGKERELVATITSSSGSTSYADSVKGRFSISRDNAKNTVYLQKNSLKPEDTAVYYCAKDSHAQGPYRYIHYHHTGDYWGQGTQVTVSS	low polyreactivity
QVHLVESGGGLVQAGGSLRLSCAASGIIFDHYAMVWYRPAPGKERELVAAISTGGGNTYYADSLKGRFTISRDNAKNTVYLQMNSLKPEDTAVYYCNADVLWGRRWGDYYGYDYWGQGTQVTVSS	low polyreactivity
QVHLVESGGGLVQAGGSLRLSCAASGIIFEYNAMGWYRQAPGKERELVAAITSTDNTNYADSVKGRFTISRDNAKKTVYLQMNILIPEDTAVYYCNTDYWLSVVYAMDYWGQGTQVTVSS	low polyreactivity
QVHLVESGGGLVQAGGSLRLSCAASGIIFGRFTMGWYRQAPGKERELVAAITSSGITYYADSLKGRFTISRDNAKNTVYLQMNSLKPEDTAVSYCNADYSIPGYYWPFDYWGQGTQVTVSS	low polyreactivity
QVHLVESGGGLVQAGGSLRLSCAASGIIFVLYTMGWYRQAPGKERELVATINWGGGNTYYADSLKGRFTISRDNAKNTVYLQMNSLKPEDTAVYYCAAAYTWYGYSQAYYYWGQGTQVTVSS	low polyreactivity
QVHLVESGGGLVQAGGSLRLSCAASGIILYGYAMGWYRQAPGKERELVAAITKSGGSTYYADSVKGRFTISRDNAKNTVYLLMNSLKPEDTAVYYCAAKLWGIWYYGYRPDDYWGQGTQVTVSS	low polyreactivity
QVHLVESGGGLVQAGGSLRLSCAASGIPLYFYAMGWYRQAPGKERELVAAISRGGRTYYADSVKGRFTISRDNAKYTVYLQMNSLKPEDTAVYYCAARYTSEYSAFDYWGQGTQVTVSS	low polyreactivity
QVHLVESGGGLVQAGGSLRLSCAASGITFGYYAMGWYRQAPGKERELVAAISNSGRTYYADSVKGRFTISRDNAKNTVYLQMNSLKPEDTAVYYCADVDAYYDFYYWGQGTQVTVSS	low polyreactivity
QVHLVESGGGLVQAGGSLRLSCAASGITFNSYAMGWYRQAPGKERDLDASISWIGGSTYYADSVKGRFTISRDNAKNTVYLQINSLKPDDTAVYYCAVDKGTDYYYDVDYWGQGTQVTVSS	low polyreactivity

Sequence	polyreactivity (PSR sort gate)
QVHLVESGGGLVQAGGSLRLSCAASGITFRFNAMGLSRQAPGKEMEFVAAITYSGDSTYYADSLKVRFTISRDNAKNSVYLHLKSVKPEDTAVYYCAAEYYAISRRIFYYWGQGTQVTVSS	low polyreactivity
QVHLVESGGGLVQAGGSLRLSCAASGITFRYYAMGWYRQAPGKERELVAVISTSGGSTYYADSVKGRFTISRDNAKNTVYLQMNSLKPEDTAVYYCAVVWPYSERYYYWGQGTQVTVSS	high polyreactivity
QVHLVESGGGLVQAGGSLRLSCAASGITLRVYVMGWYRQAPGKERELVAAITSRGDRTYYADSVKGRFTISRDNAKNTVYLQMNSLKPEDTAVYYCAASRWRDAGHSYDYWGQGTQVTVSS	high polyreactivity
QVHLVESGGGLVQAGGSLRLSCAASGITVGSYAMGWYRQAPGKERELVAAITSGGGTNYADSVKGRFTISRDNAKNTVYLEMKSLKPEDTAVYYCAARYYYLGTRYGYWGQGTQVTVSS	low polyreactivity
QVHLVESGGGLVQAGGSLRLSCAASGLIFTTNAMGWYRQAPGKERDFVAAISPSGGSTYYADSVKGRFTISRDNSKNTVYLQMNSLKPEDTAVYYCAARYSTVWHKYYYWGQGTQVTVSS	high polyreactivity
QVHLVESGGGLVQAGGSLRLSCAASGLIFYRYAMGWYRQAPGKERELVATISSGGSTNYADSVKGRFTISRDNAKNTVYLQMNSLKPEDTAVYYCAASRWLYYYLFEYWGQGTQGTVSS	high polyreactivity
QVHLVESGGGLVQAGGSLRLSCAASGLIIYRYAMGWYRQAPGKERELVAAITTNGARTYYADSVKGRFTISRDNAKNTVYLQMTSLIPEDTAVYYCAAYGAGKFWAEHNYWGLGTQVTVSS	high polyreactivity
QVHLVESGGGLVQAGGSLRLSCAASGLTFGRNAMGWYRQAPGKERELVAVISRSGGSTYYADSVKGRFTISRDNAQNTVYLQMNSLKPEDTAVYYCAAGAYSYRKYRSYDYWGQGTQVNVSS	high polyreactivity
QVHLVESGGGLVQAGGSLRLSCAASGLTFYPNAMGWYRQAPGKERELVAAITYSTGSTYADSVKGRFTITRDNAKNTVFLQMNSLKPEDSAVYDCAAYWSRVRYGMNYWGQGTQVTVSS	high polyreactivity
QVHLVESGGGLVQAGGSLRLSCAASGLTFYYYVMGWYRQAPGKERELVAAISYSGGRTYYADSVKGRFTISRDNAKNTVYLQMNSLKPEDTAVYYCAAQSRYGGKFYYWGQGTQVTVSS	high polyreactivity
QVHLVESGGGLVQAGGSLRLSCAASGRIFADYAMGWYRQAPWKERELVADIRQSGGRTYYADSVKGRFTISRDYAKNTVDLQMNSLKPEDTAVYYCATDYGSWGDYSGKYDYWGQGTQVTVSS	low polyreactivity
QVHLVESGGGLVQAGGSLRLSCAASGRIFAGYAMGWYRQAPGKERELVATITRGGSTNYADSVKRPFTISRDNAKNTVYLQMNSLKPEDTAVYYCADVTWYEEYDSWGQGTQVTVSS	low polyreactivity
QVHLVESGGGLVQAGGSLRLSCAASGRIFAWYAMGWYRQAPGKERELVAAITWGGGRTYYADSVKGRFTISRDNAKNTVYLQMNSLKPEDSAFYYCNRDFDDEMWGQGTQVTVSS	low polyreactivity
QVHLVESGGGLVQAGGSLRLSCAASGRIFGDYAMGWYRQATGKERELVAAINSSGTSTNYADSVKGRFTFSRDNAKNTVYLQMNSLKPEDTAVYYCNAEGTYRPEYDSWGQGTQVTVSS	low polyreactivity
QVHLVESGGGLVQAGGSLRLSCAASGRIFGPYAMGWYRQAPGKERELVASISGGGSTNYADSVKGRFTISRDNAKNTVYLQMNSLKPEDTAVYYCAADVYYQYWGWWPYDYWGQGTQVTVSS	low polyreactivity
QVHLVESGGGLVQAGGSLRLSCAASGRIFHYNTMGWYRQAPGKERELVAAITSSGGSTYYADSVKGRFTISRDNAKNTVYLQMNSLKPEDTAVYYCNAVFYRYGFKVDYWGQGTQETVSS	high polyreactivity
QVHLVESGGGLVQAGGSLRLSCAASGRIFIYYAMGWYRQAPGKERELVAAISWCGGRTYYADSVKGRFTISRDNAKNTVYLQMNSLKPEDTAVYYCAAGVYTGQHEYDYWGQGTQVTVSS	low polyreactivity
QVHLVESGGGLVQAGGSLRLSCAASGRIFPKNGMGWYRQAPGTERDLVAAITSGTSTYYADSVKGRFTISRDNAKNTVYLQMNRLKPEDTAVYYCAARPTDGSGWPYRWTSDYWGQGTQVTVSS	low polyreactivity
QVHLVESGGGLVQAGGSLRLSCAASGRIFRKYAIGWYRQAPGKERELVAAISFSGTSTYYADSVKGRFTISRDNAKNTVYLQMNSLKPEDTAVYYCAAVYRQGTGYVDYDSWGQGTQVTVSS	low polyreactivity
QVHLVESGGGLVQAGGSLRLSCAASGRIFVFNAMGWYRQAPGKERELVAAINYRGGTYYADSVKGRFTISRDNAKNTVYLQMNSLKPEDTAVYYCNALRQKFQYHDNDYWGQGTQVTVSS	high polyreactivity
QVHLVESGGGLVQAGGSLRLSCAASGRIFVKYAMGCYRQAPGKERELVAAIRSGGSTYYADSVKGRFTISRDNAKNTVYLQMNSLKPEDTAVYYCAADRNKHHYYTEPYDYWGQGTQVTVSS	low polyreactivity
